B1: mRNA-splicing (parent)
chain: AGUUGCUGCUGGGAGCUCCAGCACAGUGAAAUGGACAGAAGGGCAGAGCAA

Variants of: B1
Test: exon inclusion enrichment index; higher = more inclusion; WT1 exon 5 minigene, HEK293

Variant | exon inclusion enrichment index
AGUUCUUCUGUGGAGCUCCAGCACAGUGAAAUGGACAGAAGGGCAGAGCAA | 1.56
AGUUCUUCUGAGGAGCUCCAGCACAGUGAAAUGGACAGAAGGGCAGAGCAA | 2
AGUUCUUCUGCGGAGCUCCAGCACAGUGAAAUGGACAGAAGGGCAGAGCAA | 2.13
AGUUCUUCUCGGGAGCGGCAGCACAGUGAAAUGGACAGAAGGGCAGAGCAA | 1.96
AGUUCUUCUCGGGAGCGACAGCACAGUGAAAUGGACAGAAGGGCAGAGCAA | 2
AGUUCUUCUCGGGAGCGUCAGCACAGUGAAAUGGACAGAAGGGCAGAGCAA | 1.64
AGUUCUUCUCGGGAGCUCCAGCACAGUGAAAUGGACAGAAGGGCAGAACAA | 2.76
AGUUCUUCUCGGGAGCUCCAGCACAGUGAAAUGGACAGAAGGGCAGAUCAA | 2.26
AGUUCUUCUCGGGAGCUCCAGCACAGUGAAAUGGACAGAAGGGCAGACCAA | 2.43
AGUUCUUCUCGGGAGCUCCAGCACAGUGAAAUGGACAGAAGGGCACUGCAA | 1.64
AGUUCUUCUCGGGAGCUCCAGCACAGUGAAAUGGACAGAAGGGCACGGCAA | 2.72
AGUUUAUCUCGGGAGCUCCAGCACAGUGAAAUGGACAGAAGGGCAGAGCAA | 0.611
AGUUCCAACAGGGAGCUCCAGCACAGUGAAAUGGACAGAAGGGCAGAGCAA | 0.0423
AGUUCUUUUUGGGAGCUCCAGCACAGUGAAAUGGACAGAAGGGCAGAGCAA | 0.106
AGUUCCAGCCGGGAGCUCCAGCACAGUGAAAUGGACAGAAGGGCAGAGCAA | 1.62
AGUUUCUGCUGGGAGCUCCAGCACAGUGAAAUGGACAGAAGGGCAGAGCAA | 0.103
AGUUCUAUUCGGGAGCUCCAGCACAGUGAAAUGGACAGAAGGGCAGAGCAA | 0.663
AGUUCUCGUCGGGAGCUCCAGCACAGUGAAAUGGACAGAAGGGCAGAGCAA | 3.09
AGUUCUUUGCGGGAGCUCCAGCACAGUGAAAUGGACAGAAGGGCAGAGCAA | 0.68
AGUUCUUUACGGGAGCUCCAGCACAGUGAAAUGGACAGAAGGGCAGAGCAA | 0.494
AGUUCUACUCGGGAGCUCCAGCACAGUGAAAUGGACAGAAGGGCAGAGCAA | 1.66
AGUUCUUCUCGGGAGCUCCAGCACAGUGAAAUGGACAGAAGGGCAUUGCAA | 2.05
AGUUCUUCUCGGGAGCUCCAGCACAGUGAAAUGGACAGAAGGGCAUGGCAA | 1.76
AGUUCUUCUCGGGAGCUCCAGCACAGUGAAAUGGACAGAAGGGCAUCGCAA | 2.75
AGUUCUCGACGGGAGCUCCAGCACAGUGAAAUGGACAGAAGGGCAGAGCAA | 3.23
AGUUCUUCUCGGGAGCUCCAGCACAGUGAAACGGACAGAAGGGCAGAGCAA | 3.26

Variant | exon inclusion enrichment index
AGUUCUUCUCGGGAGCUCCAGCACAGUGAAAGGGACAGAAGGGCAGAGCAA | 0.212
AGUUCUUCUCGGGAGCUCCAGCACAGUGAAAAGGACAGAAGGGCAGAGCAA | 1.46
AGUUCUUCUCGGGAGCACCAGCACAGUGAAAUGGACAGAAGGGCAGAGCAA | 1.95
AGUUCUUCUCGGGAGCGCCAGCACAGUGAAAUGGACAGAAGGGCAGAGCAA | 1.65
AGUUCUUCUCGGGAGCCCCAGCACAGUGAAAUGGACAGAAGGGCAGAGCAA | 1.43
AGUUCUAGAAGGGAGCUCCAGCACAGUGAAAUGGACAGAAGGGCAGAGCAA | 0.0605
AGUUCUUCUCGGGAGCUCCAGCACAGAAAAAUGGACAGAAGGGCAGAGCAA | 2.06
AGUUCUUCUCGGGAGCUCCAGCACAGACAAAUGGACAGAAGGGCAGAGCAA | 2.07
AGUUCUUCUCGGGAGCUCCAGCACAGAUAAAUGGACAGAAGGGCAGAGCAA | 0.824
AGUUCUUCUCGGGAGCUCCAGCACAGUGAAACCGACAGAAGGGCAGAGCAA | 2.66
AGUUCUUCUCGGGAGCUCCAGCACAGUGAAACUGACAGAAGGGCAGAGCAA | 1.28
AGUUCUUCUCGGGAGCUCCAGCACAGUGAAACAGACAGAAGGGCAGAGCAA | 0.84
AGUUCCUGCCGGGAGCUCCAGCACAGUGAAAUGGACAGAAGGGCAGAGCAA | 1.29
AGUUCUUCUCGGGAGCUCCAGCACAGUGAAAUGGACAGAAGGGCAUAGCAA | 1.35
AGUUCUUCUCGGGAGCUCCAGCACAGCGAAAUGGACAGAAGGGCAGAGCAA | 3.63
AGUUCUUCUCGGGAGCUCCAGCACAGAGAAAUGGACAGAAGGGCAGAGCAA | 2.29
AGUUCUUCUCGGGAGCUCCAGCACAGGGAAAUGGACAGAAGGGCAGAGCAA | 0.69
AGUUCCGGCCGGGAGCUCCAGCACAGUGAAAUGGACAGAAGGGCAGAGCAA | 1.34
AGUUCUAGUCGGGAGCUCCAGCACAGUGAAAUGGACAGAAGGGCAGAGCAA | 0.234
AGUUCUCUUCGGGAGCUCCAGCACAGUGAAAUGGACAGAAGGGCAGAGCAA | 1.35
AGUUCUCACCGGGAGCUCCAGCACAGUGAAAUGGACAGAAGGGCAGAGCAA | 1.77
AGUUCUCACAGGGAGCUCCAGCACAGUGAAAUGGACAGAAGGGCAGAGCAA | 0.137
AGUUCUGCUCGGGAGCUCCAGCACAGUGAAAUGGACAGAAGGGCAGAGCAA | 1.54
AGUUUAUGCUGGGAGCUCCAGCACAGUGAAAUGGACAGAAGGGCAGAGCAA | 0.00655
AGUUCUUGCCGGGAGCUCCAGCACAGUGAAAUGGACAGAAGGGCAGAGCAA | 1.82

Source: the RNAGym collection of RNA variant scans (doi:10.1101/gr.219683.116)
